Data as given in patent US20120034160A1 (AbbVie / Abbott, published 2012).

T1: Recombinant Human IL-17 (human, UniProt Q16552 20-155, limits assumed)
T1 construct: bought reagent
T1 sequence (looked up): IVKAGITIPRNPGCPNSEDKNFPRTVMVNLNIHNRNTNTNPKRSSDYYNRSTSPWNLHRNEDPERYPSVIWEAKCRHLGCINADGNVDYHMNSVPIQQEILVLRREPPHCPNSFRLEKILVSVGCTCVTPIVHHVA


Columns and labels:
Recombinant Human IL-17 = biological target: T1, Recombinant Human IL-17; assay: Biacore SPR; C-terminal VD
Summary of the method: (§1)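 SPR, 25° C, HBS-EP (10 mM HEPES pH 7.4, 150 mM NaCl, 3 mM EDTA, 0.005% P20). Capture via anti-mouse IgG Fcγ chip; analyte 10−200 nM at 25 μl/min. 1:1 Langmuir global fit; KD = koff/kon.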

Recombinant Human IL-1β = biological target: T2, Recombinant Human IL-1β (human, UniProt P01584 117-269); assay: Biacore SPR; N-terminal VD
T2 construct: bought reagent; also called IL-1B
Summary of the method: as §1

Binder | Kd (Recombinant Human IL-17) [pM] | koff (Recombinant Human IL-17) [s⁻¹] | kon (Recombinant Human IL-17) [M⁻¹ s⁻¹] | Kd (Recombinant Human IL-1β) [pM] | koff (Recombinant Human IL-1β) [s⁻¹] | kon (Recombinant Human IL-1β) [M⁻¹ s⁻¹]
DVD1599 (bispecific antibody, human IgG1, kappa, V1 wt hIgG1, V2 kappa; also called DVD1599H; DVD1599L) heavy: not shown light: DIQMTQSPSSLSASVGDRVTITCRASGNIHNYLTWYQQTPGKAPKLLIYNAKTLADGVPSRFSGSGSGTDYTFTISSLQPEDIATYYCQHFWSIPYTFGQGTKLQITRTVAAPSVFIFPPEIVLTQSPDFQSVTPKEKVTITCRASQDIGSELHWYQQKPDQPPKLLIKYASHSTSGVPSRFSGSGSGTDFTLTINGLEAEDAGTYYCHQTDSLPYTFGPGTKVDIKRTVAAPSVFIFPPSDEQLKSGTASVVCLLNNFYPREAKVQWKVDNALQSGNSQESVTEQDSKDSTYSLSSTLTLSKADYEKHKVYACEVTHQGLSSPVTKSFNRGEC | ≤ 0.074 | < 1e-06 | 120000 | 21 | 4.1e-05 | 2e+06
DVD1609 (bispecific antibody, human IgG1, kappa, V1 wt hIgG1, V2 kappa; also called DVD1609H; DVD1609L) heavy: not shown light: DIQMTQSPSSLSASVGDRVTITCRASGNIHNYLTWYQQTPGKAPKLLIYNAKTLADGVPSRFSGSGSGTDYTFTISSLQPEDIATYYCQHFWSIPYTFGQGTKLQITRTVAAPSVFIFPPEIVLTQSPDFQSVTPKEKVTITCRASQNIGSELHWYQQKPDQSPKLLIKYASHSISGVPSRFSGSGSGTDFTLTINGLEAEDAATYYCHQSDTLPHTFGQGTKVDIKRTVAAPSVFIFPPSDEQLKSGTASVVCLLNNFYPREAKVQWKVDNALQSGNSQESVTEQDSKDSTYSLSSTLTLSKADYEKHKVYACEVTHQGLSSPVTKSFNRGEC | ≤ 0.84 | < 1e-06 | 89000 | 22 | 4.6e-05 | 2.1e+06
DVD1611 (bispecific antibody, human IgG1, kappa, V1 wt hIgG1, V2 kappa; also called DVD1611H; DVD1611L) heavy: not shown light: DIQMTQSPSSLSASVGDRVTITCRASGNIHNYLTWYQQTPGKAPKLLIYNAKTLADGVPSRFSGSGSGTDYTFTISSLQPEDIATYYCQHFWSIPYTFGQGTKLQITRTVAAPSVFIFPPEIVLTQSPDFQSVTPKEKVTITCRASQNIGSELHWYQQKPDQSPKLLIKYASHSISGVPSRFSGSGSGTDFTLTINGLEAEDAATYYCHQSDTLPHTFGQGTKVDIKRTVAAPSVFIFPPSDEQLKSGTASVVCLLNNFYPREAKVQWKVDNALQSGNSQESVTEQDSKDSTYSLSSTLTLSKADYEKHKVYACEVTHQGLSSPVTKSFNRGEC | 15 | 6e-05 | 4.1e+06 | 420 | 0.00013 | 310000
DVD1601 (bispecific antibody, human IgG1, kappa, V1 wt hIgG1, V2 kappa; also called DVD1601H; DVD1601L) heavy: not shown light: DIQMTQSPSSLSASVGDRVTITCRASGNIHNYLTWYQQTPGKAPKLLIYNAKTLADGVPSRFSGSGSGTDYTFTISSLQPEDIATYYCQHFWSIPYTFGQGTKLQITRTVAAPSVFIFPPEIVLTQSPDFQSVTPKEKVTITCRASQDIGSELHWYQQKPDQPPKLLIKYASHSTSGVPSRFSGSGSGTDFTLTINGLEAEDAGTYYCHQTDSLPYTFGPGTKVDIKRTVAAPSVFIFPPSDEQLKSGTASVVCLLNNFYPREAKVQWKVDNALQSGNSQESVTEQDSKDSTYSLSSTLTLSKADYEKHKVYACEVTHQGLSSPVTKSFNRGEC | ≤ 0.12 | < 1e-06 | 120000 | 16 | 2e-05 | 1.2e+06
DVD1603 (bispecific antibody, human IgG1, kappa, DVD-Ig, outer AB270, inner AB274, linker set 2; V1 wt hIgG1, V2 kappa; also called DVD1603H; DVD1603L) heavy: not shown light: DTQVTQSPSSLSASVGDRVTITCITSTDIDVDMNWYQQKPGKPPKLLISQGNTLRPGVPSRFSSSGSGTDFTFTISSLQPEDFATYYCLQSDNLPLTFGQGTKLEIKRTVAAPSVFIFPPEIVLTQSPDFQSVTPKEKVTITCRASQDIGSELHWYQQKPDQPPKLLIKYASHSTSGVPSRFSGSGSGTDFTLTINGLEAEDAGTYYCHQTDSLPYTFGPGTKVDIKRTVAAPSVFIFPPSDEQLKSGTASVVCLLNNFYPREAKVQWKVDNALQSGNSQESVTEQDSKDSTYSLSSTLTLSKADYEKHKVYACEVTHQGLSSPVTKSFNRGEC | ≤ 0.27 | < 1e-06 | 310000 | 69 | 0.00048 | 6.9e+06
DVD1613 (bispecific antibody, human IgG1, kappa, DVD-Ig, outer AB270, inner AB275, linker set 2; V1 wt hIgG1, V2 kappa; also called DVD1613H; DVD1613L) heavy: not shown light: DTQVTQSPSSLSASVGDRVTITCITSTDIDVDMNWYQQKPGKPPKLLISQGNTLRPGVPSRFSSSGSGTDFTFTISSLQPEDFATYYCLQSDNLPLTFGQGTKLEIKRTVAAPSVFIFPPEIVLTQSPDFQSVTPKEKVTITCRASQNIGSELHWYQQKPDQSPKLLIKYASHSISGVPSRFSGSGSGTDFTLTINGLEAEDAATYYCHQSDTLPHTFGQGTKVDIKRTVAAPSVFIFPPSDEQLKSGTASVVCLLNNFYPREAKVQWKVDNALQSGNSQESVTEQDSKDSTYSLSSTLTLSKADYEKHKVYACEVTHQGLSSPVTKSFNRGEC | ≤ 0.15 | < 1e-06 | 360000 | 59 | 0.00046 | 7.8e+06
DVD1625 (bispecific antibody, human IgG1, kappa, DVD-Ig, outer AB271, inner AB273, linker set 3; V1 wt hIgG1, V2 kappa; also called DVD1625H; DVD1625L) heavy: not shown light: DTVVTQSPAFLSVTPGEKVTITCITSTDIDVDMNWYQQKPDQPPKLLISQGNTLRPGVPSRFSSSGSGTDFTFTISSLEAEDAATYYCLQSDNLPLTFGQGTKLEIKRTVAAPDIQMTQSPSSLSASVGDRVTITCRASSGIISYIDWFQQKPGKAPKRLIYATFDLASGVPSRFSGSGSGTDYTLTISSLQPEDFATYYCRQVGSYPETFGQGTKLEIKRTVAAPSVFIFPPSDEQLKSGTASVVCLLNNFYPREAKVQWKVDNALQSGNSQESVTEQDSKDSTYSLSSTLTLSKADYEKHKVYACEVTHQGLSSPVTKSFNRGEC | 5.1 | 3.2e-06 | 630000 | 63 | 0.00054 | 8.6e+06
DVD1595 (bispecific antibody, human IgG1, kappa, DVD-Ig, outer AB271, inner AB273, linker set 2; V1 wt hIgG1, V2 kappa; also called DVD1595H; DVD1595L) heavy: not shown light: DTVVTQSPAFLSVTPGEKVTITCITSTDIDVDMNWYQQKPDQPPKLLISQGNTLRPGVPSRFSSSGSGTDFTFTISSLEAEDAATYYCLQSDNLPLTFGQGTKLEIKRTVAAPSVFIFPPDIQMTQSPSSLSASVGDRVTITCRASSGIISYIDWFQQKPGKAPKRLIYATFDLASGVPSRFSGSGSGTDYTLTISSLQPEDFATYYCRQVGSYPETFGQGTKLEIKRTVAAPSVFIFPPSDEQLKSGTASVVCLLNNFYPREAKVQWKVDNALQSGNSQESVTEQDSKDSTYSLSSTLTLSKADYEKHKVYACEVTHQGLSSPVTKSFNRGEC | 4.3 | 6e-06 | 1.4e+06 | 55 | 0.00041 | 7.4e+06
DVD1623 (bispecific antibody, human IgG1, kappa, DVD-Ig, outer AB270, inner AB273, linker set 3; V1 wt hIgG1, V2 kappa; also called DVD1623H; DVD1623L) heavy: not shown light: DTQVTQSPSSLSASVGDRVTITCITSTDIDVDMNWYQQKPGKPPKLLISQGNTLRPGVPSRFSSSGSGTDFTFTISSLQPEDFATYYCLQSDNLPLTFGQGTKLEIKRTVAAPDIQMTQSPSSLSASVGDRVTITCRASSGIISYIDWFQQKPGKAPKRLIYATFDLASGVPSRFSGSGSGTDYTLTISSLQPEDFATYYCRQVGSYPETFGQGTKLEIKRTVAAPSVFIFPPSDEQLKSGTASVVCLLNNFYPREAKVQWKVDNALQSGNSQESVTEQDSKDSTYSLSSTLTLSKADYEKHKVYACEVTHQGLSSPVTKSFNRGEC | ≤ 0.034 | < 1e-06 | 230000 | 75 | 0.00049 | 6.6e+06
DVD1627 (bispecific antibody, human IgG1, kappa, DVD-Ig, outer AB272, inner AB273, linker set 3; V1 wt hIgG1, V2 kappa; also called DVD1627H; DVD1627L) heavy: not shown light: ETTVTQSPSSLSASVGDRVTITCITSTDIDVDMNWYQQKPGKPPKLLISQGNTLRPGVPSRFSSSGSGTDFTFTISSLQPEDFATYYCLQSDNLPLTFGQGTKLEIKRTVAAPDIQMTQSPSSLSASVGDRVTITCRASSGIISYIDWFQQKPGKAPKRLIYATFDLASGVPSRFSGSGSGTDYTLTISSLQPEDFATYYCRQVGSYPETFGQGTKLEIKRTVAAPSVFIFPPSDEQLKSGTASVVCLLNNFYPREAKVQWKVDNALQSGNSQESVTEQDSKDSTYSLSSTLTLSKADYEKHKVYACEVTHQGLSSPVTKSFNRGEC | 8.4 | 1.7e-06 | 200000 | 86 | 0.00059 | 6.8e+06
DVD1605 (bispecific antibody, human IgG1, kappa, DVD-Ig, outer AB271, inner AB274, linker set 2; V1 wt hIgG1, V2 kappa; also called DVD1605H; DVD1605L) heavy: not shown light: DTVVTQSPAFLSVTPGEKVTITCITSTDIDVDMNWYQQKPDQPPKLLISQGNTLRPGVPSRFSSSGSGTDFTFTISSLEAEDAATYYCLQSDNLPLTFGQGTKLEIKRTVAAPSVFIFPPEIVLTQSPDFQSVTPKEKVTITCRASQDIGSELHWYQQKPDQPPKLLIKYASHSTSGVPSRFSGSGSGTDFTLTINGLEAEDAGTYYCHQTDSLPYTFGPGTKVDIKRTVAAPSVFIFPPSDEQLKSGTASVVCLLNNFYPREAKVQWKVDNALQSGNSQESVTEQDSKDSTYSLSSTLTLSKADYEKHKVYACEVTHQGLSSPVTKSFNRGEC | ≤ 0.068 | < 1e-06 | 410000 | 59 | 0.0005 | 8.6e+06
DVD1615 (bispecific antibody, human IgG1, kappa, DVD-Ig, outer AB271, inner AB275, linker set 2; V1 wt hIgG1, V2 kappa; also called DVD1615H; DVD1615L) heavy: not shown light: DTVVTQSPAFLSVTPGEKVTITCITSTDIDVDMNWYQQKPDQPPKLLISQGNTLRPGVPSRFSSSGSGTDFTFTISSLEAEDAATYYCLQSDNLPLTFGQGTKLEIKRTVAAPSVFIFPPEIVLTQSPDFQSVTPKEKVTITCRASQNIGSELHWYQQKPDQSPKLLIKYASHSISGVPSRFSGSGSGTDFTLTINGLEAEDAATYYCHQSDTLPHTFGQGTKVDIKRTVAAPSVFIFPPSDEQLKSGTASVVCLLNNFYPREAKVQWKVDNALQSGNSQESVTEQDSKDSTYSLSSTLTLSKADYEKHKVYACEVTHQGLSSPVTKSFNRGEC | 150 | 6e-05 | 390000 | 55 | 0.00055 | 9.9e+06
DVD1597 (bispecific antibody, human IgG1, kappa, DVD-Ig, outer AB272, inner AB273, linker set 2; V1 wt hIgG1, V2 kappa; also called DVD1597H; DVD1597L) heavy: not shown light: ETTVTQSPSSLSASVGDRVTITCITSTDIDVDMNWYQQKPGKPPKLLISQGNTLRPGVPSRFSSSGSGTDFTFTISSLQPEDFATYYCLQSDNLPLTFGQGTKLEIKRTVAAPSVFIFPPDIQMTQSPSSLSASVGDRVTITCRASSGIISYIDWFQQKPGKAPKRLIYATFDLASGVPSRFSGSGSGTDYTLTISSLQPEDFATYYCRQVGSYPETFGQGTKLEIKRTVAAPSVFIFPPSDEQLKSGTASVVCLLNNFYPREAKVQWKVDNALQSGNSQESVTEQDSKDSTYSLSSTLTLSKADYEKHKVYACEVTHQGLSSPVTKSFNRGEC | 12 | 4.1e-06 | 350000 | 75 | 0.00063 | 8.4e+06
